Experimental data taken from publication PMC10272835 (2023).
No end group written: not given here.

T1: N-terminal SH2 domain of SHP2
T1 chain: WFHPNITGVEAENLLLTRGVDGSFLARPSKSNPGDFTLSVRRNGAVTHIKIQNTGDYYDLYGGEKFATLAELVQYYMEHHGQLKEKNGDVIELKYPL

T2: C-terminal SH2 domain of SHP2
T2 chain: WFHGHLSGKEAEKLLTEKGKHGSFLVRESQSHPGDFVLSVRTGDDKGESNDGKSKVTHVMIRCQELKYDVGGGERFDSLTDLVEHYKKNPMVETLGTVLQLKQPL

T3: dual SH2 domains of SHP2
T3 chain: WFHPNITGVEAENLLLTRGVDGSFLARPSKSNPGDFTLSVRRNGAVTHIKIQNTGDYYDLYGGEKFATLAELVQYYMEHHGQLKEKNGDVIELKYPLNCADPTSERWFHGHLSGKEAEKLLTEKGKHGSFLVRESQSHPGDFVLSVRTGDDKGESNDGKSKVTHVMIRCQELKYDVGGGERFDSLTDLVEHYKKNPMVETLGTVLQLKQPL


Experiments:
Assay in all cases: SPR
[1] = target: T1, N-terminal SH2 domain of SHP2
[2] = target: T2, C-terminal SH2 domain of SHP2
[3] = target: T3, dual SH2 domains of SHP2
[4] = target: T1, N-terminal SH2 domain of SHP2
[5] = target: T2, C-terminal SH2 domain of SHP2
[6] = target: T3, dual SH2 domains of SHP2

Kd [1] [nM] | Kd [2] [nM] | Kd [3] [nM] | koff [4] [s⁻¹] | koff [5] [s⁻¹] | koff [6] [s⁻¹] | Binder
0.442 | 15.1 | 3.01 |  |  |  | KTPEPPVPSVPEQTEYATIVFPSGMGTSS (also: phosphorylated, residue not given here, biotinylated, position not given here) [phosphorylated PD1 ITSM peptide]
3.35 | 0.638 | 1.84 | 0.000297 | 0.00329 | 0.000121 | KEDPSAVPVFSVDYGELDFQWRE (also: phosphorylated, residue not given here, biotinylated, site not given here) [phosphorylated PD1 ITIM peptide]
